Assay [1] addresses T1, recombinant human RANKL (soluble, Gly136-Asp317, N-terminal 10 His, expressed in CHO cells) (human, UniProt O14788 136-317).
T1 sequence: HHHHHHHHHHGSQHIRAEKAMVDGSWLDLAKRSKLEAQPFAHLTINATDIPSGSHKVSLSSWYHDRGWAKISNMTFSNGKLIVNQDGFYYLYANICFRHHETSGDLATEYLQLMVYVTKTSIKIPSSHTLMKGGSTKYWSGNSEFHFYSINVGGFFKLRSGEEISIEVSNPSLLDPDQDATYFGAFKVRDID
As to the kind of experiment: cell-based or functional assay.

For assay [2], the target named is T1, recombinant human RANKL (soluble, …). As to the kind of experiment: direct ELISA, human RANKL coated 1 µg/ml.
The target is the same in assay [3]. Put plainly: competitive ELISA, RANK-Fc coated, antibody mixed with human RANKL (0.6 µg/ml, equal volume). On the technique in general: An ELISA detects its analyte on a solid surface through an enzyme-linked reagent.
Assay [4] deals with T2, mouse RANKL (R & D Systems) (mouse, UniProt O35235 158-316, limits assumed).
T2 construct: also called murine RANKL
T2 sequence (looked up): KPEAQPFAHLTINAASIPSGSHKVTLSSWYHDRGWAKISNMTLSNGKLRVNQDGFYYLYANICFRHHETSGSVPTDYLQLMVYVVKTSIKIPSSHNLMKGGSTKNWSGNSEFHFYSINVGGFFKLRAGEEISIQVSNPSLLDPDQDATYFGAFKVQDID
As to the kind of experiment: direct ELISA, mouse RANKL coated 1 µg/ml.

Assay [5] concerns the target T3, monkey RANKL (cynomolgus monkey, R & D Systems) (cynomolgus monkey, UniProt A0A7N9DBU4 140-317).
T3 construct: also called cynomolgus monkey RANKL
T3 sequence: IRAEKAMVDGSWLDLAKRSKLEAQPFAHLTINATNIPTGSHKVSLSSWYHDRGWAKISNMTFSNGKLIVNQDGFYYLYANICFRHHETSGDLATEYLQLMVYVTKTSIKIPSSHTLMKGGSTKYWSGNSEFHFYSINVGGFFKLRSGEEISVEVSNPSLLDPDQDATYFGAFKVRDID
As to the kind of experiment: direct ELISA, monkey RANKL coated.

In assay [6] the target is T1, recombinant human RANKL (soluble, …). As to the kind of experiment: ELISA, hRANKL coated 1 µg/ml; concentration at 50% Bmax; Plate#01.
For assay [7] the target is unchanged. As to the kind of experiment: competitive ELISA, RANK-Fc coated, antibody pre-incubated with 0.25 µg/ml hRANKL; Plate#01.

B1: 114-7.38.48 (antibody, V domains shown)
VH: DVQLQESGPDLVKPSQSLSLTCTVTGYSITSAYSWHWIRQFPGNKLEWMGYIHFSGVTNYNPSLKSRISITRDASKNQFFLQLSSVTTEDTATYYCATRRETGFTYWGQGTLVTVSA
VL: DIVLTQSPATLSVTPGDSVSLSCRASQSISKNLHWYQQKSHESPRLLIKYASQSISGIPSRFSGSGSGTDFTLSINSVETEDFGIYFCQQINSWPLTFGAGTKLELK
notes: Murine monoclonal antibody from hybridoma
A word on the EC50: it is the midpoint of the concentration-response curve. As to B1, the “EC50 value (ng/ml), inhibition of RAW264.7 differentiation” value in assay [1] is 585 ng/mL. Further, the figures for the 50% effective concentration (EC50) in assay [2], in assay [3] and in assay [5] were 0.0185 µg/mL, 0.93 µg/mL and 0.0198 µg/mL, respectively. Besides, the binding result in assay [4] is on record as “no binding”.

B2: 114-6.6.29 (antibody, V domains shown)
VH: DVKLVESGGGLVKPGGSLKLSCAASGFTFSSYTMSWVRQTPEKRLEWVATISSGGSYTYYPDSVKGRFTISRDNAKNTLYLQMSSLKSEDTAMYYCTRDWDYYGTTYVGGYAMDYWGQGTSVTVSS
VL: DVLMTQTPLSLPVSLGDQASISCRSSQSIVHSNGNTYLEWYLQKPGQSPKLLIYKVSNRFSGVPDRFSGSGSGTDFTLKISRVEAEDLGVYYCFQGSHVPWTFGGGTKLEIK
notes: as for B1
B2: the “EC50 value (ng/ml), inhibition of RAW264.7 differentiation” value in assay [1] is 799 ng/mL. The values for the concentration for a half-maximal effect (EC50) in assay [2], in assay [3] and in assay [5] were 0.0117 µg/mL, 0.39 µg/mL and 0.0104 µg/mL, respectively. The binding result in assay [4] was “no binding”.

B3: 114-7.19.12 (antibody, V domains shown)
VH: QVQLQQSGAELASPGASVKLSCKASGYTFTTYWLQWVKQRPGQGLEWIGAIYPGPGNTKYTQKFKDKATLTADKSASTAYMQLNSLTSEDSAVYYCARRGSRRGIAYWGQGTLVTVSA
VL: NIVLTQSPASLAVSLGQRATISCRASESVDSYGRSFMHWYQQRPGQPPTLLIYLASNLESGVPVRFSGSGSRTDFTLTIDPVEADDAATYYCQQDNEDPYTFGGGTKLEIK
notes: Murine monoclonal antibody purified from hybridoma supernatant
With B3, the “EC50 value (ng/ml), inhibition of RAW264.7 differentiation” value in assay [1] was determined as 267 ng/mL. For the same molecule, the 50% effective concentration (EC50) in assay [2] turned out to be 0.00993 µg/mL; in assay [3] it was 0.28 µg/mL; in assay [5] it was 0.0129 µg/mL. Moreover, the binding result in assay [4] is reported as “no binding”.

B4: 114-7.37.26 (antibody, V domains shown)
VH: QVQLQQSGAELASPGASVKLSCKTSGYTFTTYWLQWVKQRPGQGLEWIGAIYPGPGNTKYTQKFKDKATLTADKSASTAYMQLSSLTSEDSAVYYCARRGSRRGIAYWGQGTLVTVSA
VL: NIVLTQSPASLAVSLGQRATISCRASESVDSYGRSFMHWYQQRPGQPPTLLIYLASNLESGVPARFSGSGSRTDFTLTIDPVEADDAATYYCQQDNEDPYTFGGGTKLEIK
notes: as for B1
On to B4, for which the “EC50 value (ng/ml), inhibition of RAW264.7 differentiation” value in assay [1] was 470 ng/mL. Further, the values for the EC50 in assay [2], in assay [3] and in assay [5] were 0.0159 µg/mL, 0.29 µg/mL and 0.016 µg/mL, respectively. The binding result in assay [4] is recorded as “no binding”.

B5: G2 (antibody, human IgG2, kappa, V domains shown)
VH: QVQLVQSGAELKKPGASVKLSCKASGYTFTTYWLQWVRQAPGQGLEWMGAIYPGPGNTKYTQKFKDRFTITADKSKSTAYMQLNSLKSEDSAVYYCARRGSRRGIAYWGQGTLVTVSA
VL: NIVLTQSPASLSVSLGQRATISCRASESVDSYGRSFMHWYQQRPGQAPRLLIYLASNLESGVPARFSGSGSRTDFTLTISSVEAEDEATYYCQQDNEDPYTFGGGTKLEIKG
notes: 293F cells
For orientation: IC50 means the concentration that gives 50% inhibition. In the case of B5, the concentration giving a half-maximal response (EC50) in assay [6] was 0.00255 µg/mL. For the same molecule, in assay [7], the IC50 is 0.3 µg/mL.

B6: G6 (antibody, human IgG2, kappa, V domains shown)
VH: QVQLVQSGAELVQPGASVKLSCKASGYTFTTYWLQWVRQTPGQGLEWMGAIYPGPGNTKYTQKFKDRVTITADTSTSTAYMQLNSLRSEDSAVYYCARRGSRRGIAYWGQGTLVTVSA
VL: NIVLTQSPASLSVSLGQRATISCRASESVDSYGRSFMHWYQQRPGQAPRLLIYLASNLESGVPARFSGSGSRTDFTLTISSVEAEDEATYYCQQDNEDPYTFGGGTKLEIKG
notes: 293F cells
Take B6: the half-maximal effective concentration (EC50) in assay [6] worked out at 0.00147 µg/mL. Also, the IC50 in assay [7] turned out to be 0.29 µg/mL.

B7: G5 (antibody, human IgG2, kappa, V domains shown)
VH: QVQLVQSGAELKKPGASVKLSCKASGYTFTTYWLQWVRQAPGQGLEWMGAIYPGPGNTKYTQKFKDRFTITADKSKSTAYMQLNSLKSEDSAVYYCARRGSRRGIAYWGQGTLVTVSA
VL: NIVLTQSPASLSVSLGQRATISCRASESVDSYGRSFMHWYQQKPGQAPKLLIYLASNLESGVPSRFSGSGSRTDFTLTISRVEAEDAATYYCQQDNEDPYTFGGGTKLEIKG
notes: 293F cells
Turning to B7, in assay [6], the 50% effective concentration (EC50) is 0.00221 µg/mL. Further, the IC50 in assay [7] was determined as 0.29 µg/mL.

B8: G3 (antibody, human IgG2, kappa, V domains shown)
VH: QVQLVQSGAELKKPGASVKLSCKASGYTFTTYWLQWVRQAPGQGLEWMGAIYPGPGNTKYTQKFKDRFTITADKSKSTAYMQLNSLKSEDSAVYYCARRGSRRGIAYWGQGTLVTVSA
VL: NIVLTQSPASLSVSLGQRATISCRASESVDSYGRSFMHWYQQKPGQAPKLLIYLASNLESGVPSRFSGSGSRTDFTLTISAVEAEDAATYYCQQDNEDPYTFGGGTKLEIKG
notes: 293F cells
For B8, in assay [6], the EC50 was determined as 0.00187 µg/mL. Also, the IC50 in assay [7] turned out to be 0.31 µg/mL.

B9: G7 (antibody, human IgG2, kappa, V domains shown)
VH: QVQLVQSGAELVQPGASVKLSCKASGYTFTTYWLQWVRQTPGQGLEWMGAIYPGPGNTKYTQKFKDRVTITADTSTSTAYMQLNSLRSEDSAVYYCARRGSRRGIAYWGQGTLVTVSA
VL: NIVLTQSPASLSVSLGQRATISCRASESVDSYGRSFMHWYQQKPGQAPKLLIYLASNLESGVPSRFSGSGSRTDFTLTISAVEAEDAATYYCQQDNEDPYTFGGGTKLEIKG
notes: 293F cells
In the case of B9, the concentration giving a half-maximal response (EC50) in assay [6] came to 0.00182 µg/mL. For the same molecule, the IC50 in assay [7] amounted to 0.29 µg/mL.

B10: 114-2.222 (antibody, V domains shown)
VH: EVQLQQSGAELVKPGASVKLSCTTSGFNIKATYIHWVQQRPEQGLEWIGRIDPANGNTKYDSKFQGKATITADTSSNTAYLQLSSLTSEDTAVYFCARSLHYYVFFDYWGQGTTLTVSS
VL: DIQMTQTTSSLSASLGDRVTISCSASQGISNYLNWYQQKPDGTVKLLIYSTSSLHSGVPSRFSGSGSGTDYSLTISSLEPEDIATYYCQQYSKLPLTFGAGTKLELKR
notes: as for B1
Turning to B10, the “EC50 value (ng/ml), inhibition of RAW264.7 differentiation” value in assay [1] was 311 ng/mL. Besides, the EC50 in assay [2] was found to be 0.0137 µg/mL; in assay [3] it was 0.8 µg/mL; in assay [5], 0.0153 µg/mL. Further, the binding result in assay [4] is “no binding”.

B11: 114-2.402 (antibody, V domains shown)
VH: EVQLQQSGTELVKPGASVKLSCTLFGFNIKATYMHWVRQRPEQGLEWIGRIDPPNGNTKYDPKFQDKATIKVDTSSNTAYLQLSSLTSEDTAVYYCAREFNRYDVWLAYWGQGTLVTVSA
VL: DIQMTQTTSSLSASLGDRVTISCSASQGVSNYLNWYQQKPDGTVKLLIYSTSSLHSGVPSRFSGSGSGTDYSLTISNLEPEDVATYYCQQYSKLPFTFGSGTKLEIKR
notes: as for B1
For B11, in assay [1], the “EC50 value (ng/ml), inhibition of RAW264.7 differentiation” value is 396 ng/mL. In addition, the concentration giving a half-maximal response (EC50) in assay [2] was 0.0112 µg/mL; in assay [3], 0.93 µg/mL; in assay [5] it was 0.0111 µg/mL. For the same molecule, the binding result in assay [4] was “no binding”.

B12: 114-5.9.4 (antibody, V domains shown)
VH: EVQLQQSGAELVKPGASVKLSCTASGFNLKGTYIHWVKQRPGQGLEWIGRIDPANANTKYDPKFQGKATIRTDTSSNTAYLQLSSLTSEDTAVYFCSSPSGHYDVWFAYWGQGTLVTVSP
VL: DIQMTQPTSSLSASLGDTVTISCSASQDISNYLNWYQQKPDGTLKLLIYYTSSLHSGVPSRFSGSGSGTDYSLTISNLEPEDIATYYCQQFSKLPLTFGAGTKLELKR
notes: as for B1
Turning to B12, in assay [1], the “EC50 value (ng/ml), inhibition of RAW264.7 differentiation” value was 340 ng/mL. Moreover, the half-maximal effective concentration (EC50) worked out at 0.0118 µg/mL in assay [2], 0.28 µg/mL in assay [3] and 0.00967 µg/mL in assay [5]. In addition, the binding result in assay [4] is listed as “no binding”.

B13: 114-5.7.14 (antibody, V domains shown)
VH: EVQLQQSGAELVKPGASVKLSCTASGFKIKDTYMHWVRQRPEQGLEWIGRIDSANGNIKYDPKFQGKATITADTSSKTAYLHLSSLTFEDTAVYYCSRPKSNYDFWLPYWGQGTLVTVSA
VL: DIQMTQTTSSLSASLGDRVTISCSASQGISNYLNWYQQKPDGTVKLLIYYTSSLHSGVPSRFSGSGSGTDYSLTISNLEPEDIATYYCQQYSKLPLTFGAGTKLELK
notes: as for B1
B13: the “EC50 value (ng/ml), inhibition of RAW264.7 differentiation” value in assay [1] is 315 ng/mL. The EC50 in assay [2] amounted to 0.00623 µg/mL; in assay [3], 0.33 µg/mL; in assay [5], 0.00686 µg/mL. Moreover, the binding result in assay [4] is “no binding”.

(Values after patent EP3085709A1 (Genor Biopharma Co., Ltd, dated 2016).)
